Like-named read-outs stand apart in the source and are kept apart here.
Key:
[1] = target: 14-3-3φ (Arabidopsis thaliana, UniProt P19456+P46077); type: binding
[2] = target: FAM-labeled phosphopeptide derived from C-terminal AHA2 (FAM-TPSHYpTV) (Arabidopsis thaliana); experiment: fluorescence polarisation
[3] = target: FAM-labeled phosphopeptide derived from C-terminal AHA2 (FAM-TPSHYpTV) (Arabidopsis thaliana); experiment: fluorescence polarisation; remark: listed apart in the source
[4] = target: FAM-labeled phosphopeptide derived from C-terminal AHA2 (FAM-TPSHYpTV) (Arabidopsis thaliana); experiment: fluorescence polarisation; remark: listed apart in the source
[5] = target: FAM-labeled phosphopeptide derived from C-terminal AHA2 (FAM-TPSHYpTV) (Arabidopsis thaliana); experiment: fluorescence polarisation; remark: listed apart in the source

Sequence of 14-3-3φ (P46077 whole entry, other chains not shown): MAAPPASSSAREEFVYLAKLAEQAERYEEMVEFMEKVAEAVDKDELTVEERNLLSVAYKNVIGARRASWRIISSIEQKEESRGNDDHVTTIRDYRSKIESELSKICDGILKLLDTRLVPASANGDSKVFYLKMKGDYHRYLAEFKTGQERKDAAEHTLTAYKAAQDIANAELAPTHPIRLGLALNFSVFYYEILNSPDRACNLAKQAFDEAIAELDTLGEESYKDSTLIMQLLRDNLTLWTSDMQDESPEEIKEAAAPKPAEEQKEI

Row | Kd [1] [nM] | Kd [2] [nM] | Kd [3] [nM] | Kd [4] [nM] | Kd [5] [nM] | Compound
1 | 150 ± 30 | – | – | – | – | C=CC(C)(C)OC[C@H]1O[C@H](O[C@@H]2C3=C([C@H](C)COC(C)=O)C[C@H](O)[C@]3(C)/C=C3/[C@@H](COC)CC[C@H]3[C@@H](C)[C@H]2O)[C@H](O)[C@@H](OC(C)=O)[C@@H]1O [FC-A, Fusicoccin-A]
2 | – | 530 | 890 | 160 | 150 | recombinant Arabidopsis thaliana His-14-3-3φ (from UniProt P46077 1-267) (natural protein)

Reference: paper PMC11461981 (Scientific Reports, 2024)
